Measurements as given in patent publication US20220259593A1, “CONTROL OF MAMMALIAN GENE DOSAGE USING CRISPR” (The Regents of the University of California, priority 2019, published 2022).
Where a chain is given by its changes, count along the chain named.

System: K562 CRISPRi cells
Assay: Constant region variant library pooled growth screen, K562
Format: cell-based, human
Conditions: sgRNA constant region variants
Summary of the method: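 Cells were selected with puromycin for 2 days and then kept in RPMI-1640 spinner cultures, with duplicates handled separately. Targeting sequences comprised 3 sgRNAs per essential gene for 10 genes plus six non-targeting controls. Activities were normalized against pairing with the unmodified scaffold.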

[1] = activity relative to the original, un-modified constant region cr995
[2] = relative to the original, un-modified constant region cr995, CRISPRi
[3] = activity relative to the unmodified constant region cr995

B1: cr756 (nucleic acid)
guide: GTTTAAGAGCTAAGCTGGAAACAGCATAGCAAGTTTAAATAAGGTTAATCCGTTATCAACTTGAAAAAGTGGCAACGAGTCGTTGCT
modifications: listed as DNA, chemistry not fully specified
Mean relative activity [1]: 1.041

B2: cr889 (nucleic acid)
guide: B1 guide with G43A, T45C, A48G, C51T, G72T, A75C, T83G, C86A
modifications: listed as DNA, chemistry not fully specified
Mean relative activity [2]: 0.3347

B3: cr242 (nucleic acid)
guide: B1 guide with T45G, A48C, C60G, G69C, A75C, G77T, C81A, T83G
modifications: listed as DNA, chemistry not fully specified
Mean relative activity [2]: 0.3244

B4: cr051 (nucleic acid)
guide: B1 guide with G1T, G7C, T45C, A48G, A75C, T83G
modifications: listed as DNA, chemistry not fully specified
Mean relative activity [2]: 0.3367

B5: cr398 (nucleic acid)
guide: B1 guide with A37G, T45C, A48G, A75C, T83G
modifications: listed as DNA, chemistry not fully specified
Mean relative activity [2]: 0.3667

B6: cr108 (nucleic acid)
guide: B1 guide with G43A, T45C, A48G, C51T, A65G, A75C, T83G
modifications: listed as DNA, chemistry not fully specified
Mean relative activity [3]: 0.3221

B7: cr349 (nucleic acid)
guide: B1 guide with T45C, A48G, A75C, C81T, T83G
modifications: listed as DNA, chemistry not fully specified
Mean relative activity [2]: 0.3326

B8: cr014 (nucleic acid)
guide: B1 guide with A5C, T45C, A48G, A75C, T83G
modifications: listed as DNA, chemistry not fully specified
Mean relative activity [2]: 0.3395

B9: cr924 (nucleic acid)
guide: B1 guide with G43A, T45C, A48G, C51T, A74G, A75C, T83G, T84C
modifications: listed as DNA, chemistry not fully specified
Mean relative activity [2]: 0.3638

B10: cr709 (nucleic acid)
guide: B1 guide with T45C, A48G, C57T, G71T, A75C, T83G
modifications: listed as DNA, chemistry not fully specified
Mean relative activity [3]: 0.3211

B11: cr055 (nucleic acid)
guide: B1 guide with T2G, A8C, T45C, A48G, A75C, T83G
modifications: listed as DNA, chemistry not fully specified
Mean relative activity [3]: 0.3045

B12: cr210 (nucleic acid)
guide: B1 guide with T45C, A48G, A58T, A65C, A75C, T83G
modifications: listed as DNA, chemistry not fully specified
Mean relative activity [3]: 0.313

B13: cr127 (nucleic acid)
guide: B1 guide with A42T, T45C, A48G, A65G, A75C, G79C, T83G
modifications: listed as DNA, chemistry not fully specified
Mean relative activity [2]: 0.3659

B14: cr468 (nucleic acid)
guide: B1 guide with T34A, T45C, A48G, A75C, T83G
modifications: listed as DNA, chemistry not fully specified
Mean relative activity [3]: 0.32

B15: cr689 (nucleic acid)
guide: B1 guide with T34C, T45C, A48G, A55T, A65T, A75C, T83G
modifications: listed as DNA, chemistry not fully specified
Mean relative activity [2]: 0.3547

B16: cr351 (nucleic acid)
guide: B1 guide with T45C, A47C, A48G, C57A, G63A, A75C, T83G
modifications: listed as DNA, chemistry not fully specified
Mean relative activity [2]: 0.3557

B17: cr685 (nucleic acid)
guide: B1 guide with T45C, A48G, A59G, A75C, T83G
modifications: listed as DNA, chemistry not fully specified
Mean relative activity [1]: 1.041

B18: cr897 (nucleic acid)
guide: B1 guide with A38T, T45C, A48G, A75C, T83G
modifications: listed as DNA, chemistry not fully specified
Mean relative activity [3]: 0.3233

B19: cr573 (nucleic acid)
guide: B1 guide with A31T, T45C, A48G, T53A, G71C, A75C, T83G
modifications: listed as DNA, chemistry not fully specified
Mean relative activity [2]: 0.3297

B20: cr006 (nucleic acid)
guide: B1 guide with T2G, T45C, A48G, A75C, T83G
modifications: listed as DNA, chemistry not fully specified
Mean relative activity [2]: 0.3275

B21: cr209 (nucleic acid)
guide: B1 guide with A41C, T45C, A48G, A75C, T83G
modifications: listed as DNA, chemistry not fully specified
Mean relative activity [3]: 0.2959

B22: cr196 (nucleic acid)
guide: B1 guide with T45C, A48G, A75G, G77C, C81G, T83C
modifications: listed as DNA, chemistry not fully specified
Mean relative activity [2]: 0.3626

B23: cr182 (nucleic acid)
guide: B1 guide with G33T, T45C, A48G, A75C, T83G
modifications: listed as DNA, chemistry not fully specified
Mean relative activity [2]: 0.3559

B24: cr064 (nucleic acid)
guide: B1 guide with A5T, T45C, A48G, A75C, T83G
modifications: listed as DNA, chemistry not fully specified
Mean relative activity [2]: 0.3383

B25: cr586 (nucleic acid)
guide: B1 guide with T34C, T45C, A48G, A74C, A75C, T83G, T84G
modifications: listed as DNA, chemistry not fully specified
Mean relative activity [3]: 0.2939

B26: cr146 (nucleic acid)
guide: B1 guide with T45C, A48G, A75C, C76G, G77C, C81G, G82C, T83G
modifications: listed as DNA, chemistry not fully specified
Mean relative activity [3]: 0.3141

B27: cr322 (nucleic acid)
guide: B1 guide with T45C, A48G, T49C, C57G, A75C, T83G
modifications: listed as DNA, chemistry not fully specified
Mean relative activity [3]: 0.3033

B28: cr192 (nucleic acid)
guide: B1 guide with T45C, A48G, A74C, A75C, G77C, C81G, T83G, T84G
modifications: listed as DNA, chemistry not fully specified
Mean relative activity [2]: 0.3609

B29: cr634 (nucleic acid)
guide: B1 guide with A32G, T45C, A48G, A58G, A75C, T83G
modifications: listed as DNA, chemistry not fully specified
Mean relative activity [2]: 0.3508

B30: cr004 (nucleic acid)
guide: B1 guide with T2A, T45C, A48G, A75C, T83G
modifications: listed as DNA, chemistry not fully specified
Mean relative activity [3]: 0.3103

B31: cr074 (nucleic acid)
guide: B1 guide with A6T, A8C, T45C, A48G, A75C, T83G
modifications: listed as DNA, chemistry not fully specified
Mean relative activity [2]: 0.341

B32: cr252 (nucleic acid)
guide: B1 guide with T45C, A48G, G52A, A75C, T83G
modifications: listed as DNA, chemistry not fully specified
Mean relative activity [2]: 0.3581

B33: cr471 (nucleic acid)
guide: B1 guide with T45C, A48G, G72T, A75C, C76A, G77C, C81G, G82T, T83G, C86A
modifications: listed as DNA, chemistry not fully specified
Mean relative activity [2]: 0.3625

B34: cr850 (nucleic acid)
guide: B1 guide with T45C, A48G, A75C, A78G, T80G, T83G
modifications: listed as DNA, chemistry not fully specified
Mean relative activity [3]: 0.3225

B35: cr466 (nucleic acid)
guide: B1 guide with T40A, T45C, A48G, A75C, T83G
modifications: listed as DNA, chemistry not fully specified
Mean relative activity [3]: 0.3153

B36: cr315 (nucleic acid)
guide: B1 guide with G43A, T45C, A48G, C51T, T62G, A67C, A74C, A75C, T83G, T84G
modifications: listed as DNA, chemistry not fully specified
Mean relative activity [2]: 0.3642

B37: cr173 (nucleic acid)
guide: B1 guide with G43A, T45C, A48G, C51T, C73T, A75G, T83C, G85A
modifications: listed as DNA, chemistry not fully specified
Mean relative activity [3]: 0.3244

B38: cr003 (nucleic acid)
guide: B1 guide with G1T, T45C, A48G, A75C, T83G
modifications: listed as DNA, chemistry not fully specified
Mean relative activity [2]: 0.3678

B39: cr623 (nucleic acid)
guide: B1 guide with T45C, A48G, A59C, C60T, T61G, A68C, G69A, T70G, A75C, T83G
modifications: listed as DNA, chemistry not fully specified
Mean relative activity [1]: 1.041

B40: cr069 (nucleic acid)
guide: B1 guide with T2C, G7A, T45C, A48G, A75C, T83G
modifications: listed as DNA, chemistry not fully specified
Mean relative activity [3]: 0.3244

B41: cr002 (nucleic acid)
guide: B1 guide with G1C, T45C, A48G, A75C, T83G
modifications: listed as DNA, chemistry not fully specified
Mean relative activity [3]: 0.3195
